Source: article PMC6494814, “Kremen1-induced cell death is regulated by homo- and heterodimerization” (Cell Death Discovery, 2019)

B1: Kremen1 (Krm1), full length, Flag-tagged or HA-tagged (receptor, UniProt Q99N43 20-473, looked up)
chain: ARPAPGPRSGPECFTANGADYRGTQSWTALQGGKPCLFWNETFQHPYNTLKYPNGEGGLGEHNYCRNPDGDVSPWCYVAEHEDGVYWKYCEIPACQMPGNLGCYKDHGNPPPLTGTSKTSNKLTIQTCISFCRSQRFKFAGMESGYACFCGNNPDYWKHGEAASTECNSVCFGDHTQPCGGDGRIILFDTLVGACGGNYSAMAAVVYSPDFPDTYATGRVCYWTIRVPGASRIHFNFTLFDIRDSADMVELLDGYTHRVLVRLSGRSRPPLSFNVSLDFVILYFFSDRINQAQGFAVLYQATKEEPPQERPAVNQTLAEVITEQANLSVSAAHSSKVLYVITPSPSHPPQTAPGSHSWAPSVGANSHRVEGWTVYGLATLLILTVTAVVAKILLHVTFKSHRVPASGDLRDCRQPGASGDIWTIFYEPSTTISIFKKKLKGQSQQDDRNPLVSD
notes: Kremen1 (Krm1), transmembrane receptor, full length; Two differently tagged copies of the same full-length protein (Flag-Krm1, HA-Krm1), each with ONE tag, written as one molecule for the self-association; In rows with truncated Krm1 or with Krm2 the Flag-tagged copy is the bait; Vector pCAG-IRES-EGFP or pCS2; also called Flag-Krm1; HA-Krm1; source: HEK293T, transfected, in lysate; not shown: …
B2: HA-Krm1secECD, secreted ectodomain of Krm1 (lacks the transmembrane and intracellular domains) (domain or fragment, UniProt Q99N43 21-392, looked up)
chain: RPAPGPRSGPECFTANGADYRGTQSWTALQGGKPCLFWNETFQHPYNTLKYPNGEGGLGEHNYCRNPDGDVSPWCYVAEHEDGVYWKYCEIPACQMPGNLGCYKDHGNPPPLTGTSKTSNKLTIQTCISFCRSQRFKFAGMESGYACFCGNNPDYWKHGEAASTECNSVCFGDHTQPCGGDGRIILFDTLVGACGGNYSAMAAVVYSPDFPDTYATGRVCYWTIRVPGASRIHFNFTLFDIRDSADMVELLDGYTHRVLVRLSGRSRPPLSFNVSLDFVILYFFSDRINQAQGFAVLYQATKEEPPQERPAVNQTLAEVITEQANLSVSAAHSSKVLYVITPSPSHPPQTAPGSHSWAPSVGANSHRVEGWT

Legend:
[1] = target: the molecule itself; assay: cross-linking; HEK293T cells transfected with HA-Krm1 and Flag-Krm1, 0.2 mM BS3 (non cell-permeant) on ice for 30 min prior to lysis; straight western blots and anti-Flag immunoprecipitation with anti-HA blot
[2] = target: B1; assay: cell-based or functional assay

proportion of cleaved Caspase-3+ cells among HA+ HEK293T cells transfected with HA-Krm1 and either GFP or Krm1secECD; the pair interfered with is Krm1 with Krm1 (dimerization) [2] [fold decrease]	Binder	stoichiometry N [1]
	B1	2
2	B2	
